Test results as given in patent US10883090B2, “P-coumaroyl-CoA:monolignol transferases” (WISCONSIN ALUMNI RESEARCH FOUNDATION, priority 2017, dated 2021).
Entries after “also recorded” stand apart in the source; their conditions may differ.

Tests used:
[1] = Activity screening of cell-free translated PMT enzymes with p-coumaroyl-CoA and monolignol mixture (LC-MS); format: biochemical; details: fed monolignols (H, G, S) and p-coumaroyl-CoA; FIGS. 3A, 4A, 9
Protocol: The active enzymes were produced using a wheat germ cell-free translation bilayer method previously reported (Makino, S., Beebe, E. T., Markley, J. L. and Fox, B. G. (2014) Cell-free protein synthesis for functional and structural studies. Methods in Molecular Biology, 1091, 161-178). Briefly, a translation reaction mixture consisting of 60 OD wheat germ extract (CellFree Sciences, Matsuyama, Japan), 0.04 mg/mL creatine kinase, 0.3 mM each amino acid, 12.6 mM HEPES-KOH, pH 7.8, 52.6 mM potassium acetate, 1.3 mM magnesium acetate, 0.2 mM spermidine HCl, 2.1 mM DTT, 0.6 mM ATP, 0.13 mM GTP, 8.4 mM creatine phosphate, and 0.003% sodium azide was prepared and combined with non-purified, fresh transcription at a ratio of 4 parts reaction mix to 1 part transcription. A feeding layer was prepared consisting of 0.3 mM each amino acid, 24 mM HEPES-KOH, pH 7.8, 100 mM potassium acetate, 2.5 mM magnesium acetate, 0.4 mM spermidine HCl, 4 mM DTT, 1.2 mM ATP, 0.25 mM GTP, 16 mM creatine phosphate, and 0.005% sodium azide, of which […] was added to wells of a U-bottom 96-well plate. 25 μL of the denser translation reaction mixture was carefully underlayed below the feeding layer, forming a bilayer. The plate was sealed and incubated at 22° C. for 18 h. The fully-diffused 150-μL bilayer reaction was then harvested and used for expression analysis by SDS-PAGE, and activity screening. […]

[2] = Activity screening of cell-free translated PMT enzymes with feruloyl-CoA and monolignol mixture (LC-MS); format: biochemical; details: fed monolignols (H, G, S) and feruloyl-CoA, FIGS. 3B, 4B, 10
Protocol: The active enzymes were produced using a wheat germ cell-free translation bilayer method previously reported (Makino, S., Beebe, E. T., Markley, J. L. and Fox, B. G. (2014) Cell-free protein synthesis for functional and structural studies. Methods in Molecular Biology, 1091, 161-178). Briefly, a translation reaction mixture consisting of 60 OD wheat germ extract (CellFree Sciences, Matsuyama, Japan), 0.04 mg/mL creatine kinase, 0.3 mM each amino acid, 12.6 mM HEPES-KOH, pH 7.8, 52.6 mM potassium acetate, 1.3 mM magnesium acetate, 0.2 mM spermidine HCl, 2.1 mM DTT, 0.6 mM ATP, 0.13 mM GTP, 8.4 mM creatine phosphate, and 0.003% sodium azide was prepared and combined with non-purified, fresh transcription at a ratio of 4 parts reaction mix to 1 part transcription. A feeding layer was prepared consisting of 0.3 mM each amino acid, 24 mM HEPES-KOH, pH 7.8, 100 mM potassium acetate, 2.5 mM magnesium acetate, 0.4 mM spermidine HCl, 4 mM DTT, 1.2 mM ATP, 0.25 mM GTP, 16 mM creatine phosphate, and 0.005% sodium azide, of which […] was added to wells of a U-bottom 96-well plate. 25 μL of the denser translation reaction mixture was carefully underlayed below the feeding layer, forming a bilayer. The plate was sealed and incubated at 22° C. for 18 h. The fully-diffused 150-μL bilayer reaction was then harvested and used for expression analysis by SDS-PAGE, and activity screening.
The enzyme mixture was screened for activity with p-coumaroyl-CoA (FIG. 2B) and feruloyl-CoA (FIG. 2C) and all three monolignols (FIG. 2A) (p-coumaryl, coniferyl, and sinapyl alcohol). Each enzyme was tested individually alongside positive and negative controls following the procedure previously reported (Withers, S., Lu, F., Kim, H., Zhu, Y., Ralph, J. and Wilkerson, C. G. (2012) Identification of a grass-specific enzyme that acylates monolignols with p-coumarate. Journal of Biological Chemistry, 287, 8347-8355). Briefly, the assay was initiated by adding 10 μL of wheat germ cell-free translation containing one of the PMT enzymes at a concentration of 1.5-2 μM to a reaction containing 50 mM sodium phosphate buffer, pH 6, 1 mM dithiothreitol (DTT), 1 mM CoA thioester, 1 mM monolignol mixture (each monolignol at 1 mM concentration), and deionized water in a final volume of 50 μL. After a 30-min incubation, the reaction was stopped by the addition of an equal volume 100 mM hydrochloric acid. Reaction products were solubilized by adjusting the solution to 50% methanol. An identical assay with no enzyme added was performed for every reaction. Samples were filtered through 0.2 μm filters prior to analysis by liquid chromatography-mass spectrometry (LC-MS). […]

Molecule	p-coumaroyl-CoA:monolignol transferase activity (in words) [1]	feruloyl-CoA monolignol transferase activity (in words) [2]	feruloyl-CoA monolignol transferase activity (in words) ([2]; listed as SEQ ID NO:4)	feruloyl-CoA monolignol transferase activity (in words) ([2]; listed as SEQ ID NO:2)
SbPMT: Sorghum bicolor (sorghum) p-coumaroyl-CoA:monolignol transferase, amino acid sequence SEQ ID NO:4, Sb09g002910.1 (protein, Sorghum bicolor) MGTIDDTAGLFPVTRTNRSLVPPSSATPQETLRLSVIDRVAGLRHLVRSLHVFAGGENKKQAAPPAKSLREALGKALVDYYPFAGRFVEEDGEVRVACTGEGAWFVEAAAACSLEEVRHLDHPMLIPKEELLPEPAPGVNPLDMPLMMQVTEFTCGGFVVGLISVHTIADGLGAGQFINAVADYARGGATAGAVTRPRITPIWARDVIPDPPKMPAPPPRLDLLDLVYFTTDLSPDHIAKVKSSYLESTGQRCSAFDVCVARTWQARVRALRLPDAAAPVHVCFFANTRHLLPATAAAPASGFYGNCFYTVKATRPSGEVAAADIVDVVRAIRDAKARLAADFARWAAGGFDRDPYELTFTYDSLFVSDWTRLGFLEADYGWGTPTHVVPFSYHPFMAVAVIGAPPAPKPGARIMTMCVQEQHLPEFQEQMNQPCS	active PMTs, coupling monolignols to p-coumaroyl-CoA; also recorded: found to produce monolignol p-coumarate conjugates	limited to no feruloyl-CoA monolignol transferase activity; also recorded: little to no activity	no relevant activity in generating monolignol ferulates	–
PvPMT: Panicum virgatum (switchgrass) p-coumaroyl-CoA:monolignol transferase, amino acid sequence SEQ ID NO:2, Pavir.J00672.1 (protein, listed as Panicum virgatum) MGTIGFPVTRTSRSLVAPSSATPQETLHLSVIDRVAGLRHLVRSLHVFDGRRGEAAVRTPAETLRAALGKALVDYYPLAGRFVEEDGEVRVACTAGGAWFVEAAAACTLEEVKHLDHPMVIPKEDLLPEPAPDVNPLDMPLMMQVTEFACGGFVVGLISVHTIADGLGAGQFINAVADYARGLPRPRVLPVWARDVIPAPSRIVSPPPRFDLLDLRYFTVDLSPEHIAKVKSSFFEATGQRCSAFDVCVAKTWQSRVRALRLDGDDPARPIHVCFFANTRHLLPQLAPGFYGNCFYTVRATRPCGEVAAAGVVEVVRAIRDAKARLGADFARWAAGGFERDPYELTFSYDSLFVSDWTRLGFLEADYGWGAPAHVVPFSYHPFMAVAVIGAPPAPKPGARVMTMCVTEKHLPEFQEQMNAFAAGNHQ	active PMTs, coupling monolignols to p-coumaroyl-CoA; also recorded: found to produce monolignol p-coumarate conjugates	limited to no feruloyl-CoA monolignol transferase activity; also recorded: little to no activity	–	no relevant activity in generating monolignol ferulates
